Assay results taken from FireProtDB (doi:10.1002/cbic.201402128).
Several values for one entry are separate records, joined by “and”; a condition that tells them apart may be missing. Equal values may be shown once.

B1: Haloalkane dehalogenase, D4Z2G1 (parent)
chain: MSLGAKPFGEKKFIEIKGRRMAYIDEGTGDPILFQHGNPTSSYLWRNIMPHCAGLGRLIACDLIGMGDSDKLDPSGPERYAYAEHRDYLDALWEALDLGDRVVLVVHDWGSALGFDWARRHRERVQGIAYMEAIAMPIEWADFPEQDRDLFQAFRSQAGEELVLQDNVFVEQVLPGLILRPLSEAEMAAYREPFLAAGEARRPTLSWPRQIPIAGTPADVVAIARDYAGWLSESPIPKLFINAEPGALTTGRMRDFCRTWPNQTEITVAGAHFIQEDSPDEIGAAIAAFVRRLRPA

Variants of: B1
Details: Sphingobium indicum (strain DSM 16413 / CCM 7287 / MTCC 6362 / UT26 / NBRC 101211 / UT26S); pH 7.5; Thermal; fluorescence; Na-Hepes 50 mM; reversible: no; structure 1MJ5; whole UniProt chain shown

Variant	Tm	change of melting temperature, mutant - wild type (higher = more stable)
MSLGAKPFGEKKFIEIKGRRMAYIDEGTGDPILFQHGNPTSSYLWRNIMPHCAGLGRLIACDLIGMGLSDKLDPSGPERYAYAEHRDYLDALWEALDLGDRVVLVVHDWGSALGFDWARRHRERVQGIAYMEAIAMPIEWADFPEQDRDLFQAFRSQAGEELVLQDNVFVEQVLPGLILRPLSEAEMAAYREPFLAAGEARRPTLSWPRQIPIAGTPADVVAIARDYAGWLSESPIPKLFINAEPGALTTGRMRDFCRTWPNQTEITVAGAHFIQEDSPDEIGAAIAAFVRRLRPA [D68L]	49.5 °C	-1.5 °C
MSLGAKPFGEKKFIEIKGRRMAYIDEGTGDPILFQHGNPTSSYLWRNIMPHCAGLGRLIACDLIGMGHSDKLDPSGPERYAYAEHRDYLDALWEALDLGDRVVLVVHDWGSALGFDWARRHRERVQGIAYMEAIAMPIEWADFPEQDRDLFQAFRSQAGEELVLQDNVFVEQVLPGLILRPLSEAEMAAYREPFLAAGEARRPTLSWPRQIPIAGTPADVVAIARDYAGWLSESPIPKLFINAEPGALTTGRMRDFCRTWPNQTEITVAGAHFIQEDSPDEIGAAIAAFVRRLRPA [D68H]	52 °C	1 °C
MSLGAKPFGEKKFIEIKGRRMAYIDEGTGDPILFQHGNPTSSYLWRNIMPHCAGLGRLIACDLIGMGNSDKLDPSGPERYAYAEHRDYLDALWEALDLGDRVVLVVHDWGSALGFDWARRHRERVQGIAYMEAIAMPIEWADFPEQDRDLFQAFRSQAGEELVLQDNVFVEQVLPGLILRPLSEAEMAAYREPFLAAGEARRPTLSWPRQIPIAGTPADVVAIARDYAGWLSESPIPKLFINAEPGALTTGRMRDFCRTWPNQTEITVAGAHFIQEDSPDEIGAAIAAFVRRLRPA [D68N]	50.5 °C	-0.5 °C
MSLGAKPFGEKKFIEIKGRRMAYIDEGTGDPILFQHGNPTSCYLWRNIMPHCAGLGRLICCDLIGMGDSDKLDPSGPERYAYAEHRDYLDALWEALDLGDRVVLVVHDWGSALGFDWARRHRERVQGIAYMEAIAMPIEWADFPEQDRDLFQAFRSQAGEELVLQDNVFVEQVLPGLILRPLSEAEMAAYREPFLAAGEARRPTLSWPRQIPIAGTPADVVAIARDYAGWLSESPIPKLFINAEPGALTTGRMRDFCRTWPNQTEITVAGAHFIQEDSPDEIGAAIAAFVRRLRPA [S42C A60C]	47.5 °C	-1.5 °C
MSLGAKPFGEKKFIEIKGRRMAYIDEGTGDPILFQHGNPTSSYLWRNIMPHCAGLGRLIAPDLIGMGDSDKLDPSGPERYAYAEHRDYLDALWEALDLGDRVVLVVHDWGSALGFDWARRHRERVQGIAYMEAIAMPIEWADFPEQDRDLFQAFRSQAGEELVLQDNVFVEQVLPGLILRPLSEAEMAAYREPFLAAGEARRPTLSWPRQIPIAGTPADVVAIARDYAGWLSESPIPKLFINAEPGALTTGRMRDFCRTWPNQTEITVAGAHFIQEDSPDEIGAAIAAFVRRLRPA [C61P]	50.5 °C	-0.5 °C
MSLGAKPFGEKKFIEIKGRRMAYIDEGTGDPILFQHGNPTSSYLWRNIMPHCAGLGRLIACDLIGMGDSDKLDPCGPECYAYAEHRDYLDALWEALDLGDRVVLVVHDWGSALGFDWARRHRERVQGIAYMEAIAMPIEWADFPEQDRDLFQAFRSQAGEELVLQDNVFVEQVLPGLILRPLSEAEMAAYREPFLAAGEARRPTLSWPRQIPIAGTPADVVAIARDYAGWLSESPIPKLFINAEPGALTTGRMRDFCRTWPNQTEITVAGAHFIQEDSPDEIGAAIAAFVRRLRPA [S75C R79C]	45.5 °C and 44 °C	-5.5 °C and -5 °C
MSLGAKPFGEKKFIEIKGRRMAYIDEGTGDPILFQHGNPTSSYLWRNIMPHCAGLGRLIACDLIGMGDSDKLDPSGPHRYAYAEHRDYLDALWEALDLGDRVVLVVHDWGSALGFDWARRHRERVQGIAYMEAIAMPIEWADFPEQDRDLFQAFRSQAGEELVLQDNVFVEQVLPGLILRPLSEAEMAAYREPFLAAGEARRPTLSWPRQIPIAGTPADVVAIARDYAGWLSESPIPKLFINAEPGALTTGRMRDFCRTWPNQTEITVAGAHFIQEDSPDEIGAAIAAFVRRLRPA [E78H]	51 °C	0 °C
MSLGAKPFGEKKFIEIKGRRMAYIDEGTGDPILFQHGNPTSSYLWRNIMPHCAGLGRLIACDLIGMGDSDKLDPCGPERYAYAEHRDYLDALWEALDLGDRVVLVVHDWGSALGFDWARRHRERVQGIAYMEAIAMPIEWADFPEQDRDLFQAFRSQAGEELVLQDNVFVEQVLPGLILRPLSEAEMAAYREPFLAAGCARRPTLSWPRQIPIAGTPADVVAIARDYAGWLSESPIPKLFINAEPGALTTGRMRDFCRTWPNQTEITVAGAHFIQEDSPDEIGAAIAAFVRRLRPA [S75C E199C]	48.5 °C	-2.5 °C
MSLGAKPFGEKKFIEIKGRRMAYIDEGTGDPILFQHGNPTSSYLWRNIMPHCAGLGRLIACDLIGMGDSDKLDPSGPERYNYAEHRDYLDALWEALDLGDRVVLVVHDWGSALGFDWARRHRERVQGIAYMEAIAMPIEWADFPEQDRDLFQAFRSQAGEELVLQDNVFVEQVLPGLILRPLSEAEMAAYREPFLAAGEARRPTLSWPRQIPIAGTPADVVAIARDYAGWLSESPIPKLFINAEPGALTTGRMRDFCRTWPNQTEITVAGAHFIQEDSPDEIGAAIAAFVRRLRPA [A81N]	51 °C	0 °C
MSLGAKPFGEKKFIEIKGRRMAYIDEGTGDPILFQHGNPTSSYLWRNIMPHCAGLGRLIACDLIGMGDSDKLDPSGPERYKYAEHRDYLDALWEALDLGDRVVLVVHDWGSALGFDWARRHRERVQGIAYMEAIAMPIEWADFPEQDRDLFQAFRSQAGEELVLQDNVFVEQVLPGLILRPLSEAEMAAYREPFLAAGEARRPTLSWPRQIPIAGTPADVVAIARDYAGWLSESPIPKLFINAEPGALTTGRMRDFCRTWPNQTEITVAGAHFIQEDSPDEIGAAIAAFVRRLRPA [A81K]	52 °C	1 °C
MSLGAKPFGEKKFIEIKGRRMAYIDEGTGDPILFQHGNPTSSYLWRNIMPHCAGLGRLIACDLIGMGDSDKLDPSGPERYPYAEHRDYLDALWEALDLGDRVVLVVHDWGSALGFDWARRHRERVQGIAYMEAIAMPIEWADFPEQDRDLFQAFRSQAGEELVLQDNVFVEQVLPGLILRPLSEAEMAAYREPFLAAGEARRPTLSWPRQIPIAGTPADVVAIARDYAGWLSESPIPKLFINAEPGALTTGRMRDFCRTWPNQTEITVAGAHFIQEDSPDEIGAAIAAFVRRLRPA [A81P]	48 °C	-3 °C
MSLGAKPFGEKKFIEIKGRRMAYIDEGTGDPILFQHGNPTSSYLWRNIMPHCAGLGRLIACDLIGMGDSDKLDPSGPERYEYAEHRDYLDALWEALDLGDRVVLVVHDWGSALGFDWARRHRERVQGIAYMEAIAMPIEWADFPEQDRDLFQAFRSQAGEELVLQDNVFVEQVLPGLILRPLSEAEMAAYREPFLAAGEARRPTLSWPRQIPIAGTPADVVAIARDYAGWLSESPIPKLFINAEPGALTTGRMRDFCRTWPNQTEITVAGAHFIQEDSPDEIGAAIAAFVRRLRPA [A81E]	48 °C	-3 °C
MSLGAKPFGEKKFIEIKGRRMAYIDEGTGDPILFQHGNPTSSYLWRNIMPHCKGLGRLIACDLIGMGDSDKLDPSGPERYAYAEHRDYLDALWEALDLGDRVVLVVHDWGSALGFDWARRHRERVQGIAYMEAIAMPIEWADFPEQDRDLFQAFRSQAGEELVLQDNVFVEQVLPGLILRPLSEAEMAAYREPFLAAGEARRPTLSWPRQIPIAGTPADVVAIARDYAGWLSESPIPKLFINAEPGALTTGRMRDFCRTWPNQTEITVAGAHFIQEDSPDEIGAAIAAFVRRLRPA [A53K]	51 °C	0 °C
MSLGAKPFGEKKFIEIKGRRMAYIDEGTGDPILFQHGNPTSSYLWRNIMPHCLGLGRLIACDLIGMGDSDKLDPSGPERYAYAEHRDYLDALWEALDLGDRVVLVVHDWGSALGFDWARRHRERVQGIAYMEAIAMPIEWADFPEQDRDLFQAFRSQAGEELVLQDNVFVEQVLPGLILRPLSEAEMAAYREPFLAAGEARRPTLSWPRQIPIAGTPADVVAIARDYAGWLSESPIPKLFINAEPGALTTGRMRDFCRTWPNQTEITVAGAHFIQEDSPDEIGAAIAAFVRRLRPA [A53L]	52 °C	1 °C
MSLGAKPFGEKKFIEIKGRRMAYIDEGTGDPILFQHGNPTSSYLWRNCMPHCAGLGRLIACDLIGMGDSDKLDPSGPERYAYAEHRDYLDALWEALDLGDRVVLVVHDWGSALGFDWARRHRERVQGIAYMEAIAMPIEWADFPEQDRDLFQAFRSQAGEELVLQDNVFVEQVLPGLILRPLSEAEMAAYREPFLAAGEARRPTLSWPRQIPIAGTPADVVAIARDYAGWLSESPIPKLFINAEPGALTTGRMRDFCRTWPNQTEITVAGAHFIQEDSPDEICAAIAAFVRRLRPA [I48C G283C]	49 °C	-2 °C
MSLGAKPFGEKKFIEIKGRRMAYIDEGTGDPILFQHGNPTQSYLWRNIMPHCAGLGRLIACDLIGMGDSDKLDPSGPERYAYAEHRDYLDALWEALDLGDRVVLVVHDWGSALGFDWARRHRERVQGIAYMEAIAMPIEWADFPEQDRDLFQAFRSQAGEELVLQDNVFVEQVLPGLILRPLSEAEMAAYREPFLAAGEARRPTLSWPRQIPIAGTPADVVAIARDYAGWLSESPIPKLFINAEPGALTTGRMRDFCRTWPNQTEITVAGAHFIQEDSPDEIGAAIAAFVRRLRPA [S41Q]	49 °C	-2 °C
MSLGAKPFGEKKFIEIKGRRMAYIDEGTGDPILFQHGNPTSAYLWRNIMPHCAGLGRLIACDLIGMGDSDKLDPSGPERYAYAEHRDYLDALWEALDLGDRVVLVVHDWGSALGFDWARRHRERVQGIAYMEAIAMPIEWADFPEQDRDLFQAFRSQAGEELVLQDNVFVEQVLPGLILRPLSEAEMAAYREPFLAAGEARRPTLSWPRQIPIAGTPADVVAIARDYAGWLSESPIPKLFINAEPGALTTGRMRDFCRTWPNQTEITVAGAHFIQEDSPDEIGAAIAAFVRRLRPA [S42A]	49.5 °C	-1.5 °C
MSLGAKPFGEKKFIEIKGRRMAYIDEGTGDPILFQHGNPTSSYLWRNIMPHCAGLGRLIACDLIGMGDSDKLDPSGPERYAYNEHRDYLDALWEALDLGDRVVLVVHDWGSALGFDWARRHRERVQGIAYMEAIAMPIEWADFPEQDRDLFQAFRSQAGEELVLQDNVFVEQVLPGLILRPLSEAEMAAYREPFLAAGEARRPTLSWPRQIPIAGTPADVVAIARDYAGWLSESPIPKLFINAEPGALTTGRMRDFCRTWPNQTEITVAGAHFIQEDSPDEIGAAIAAFVRRLRPA [A83N]	50 °C	-1 °C
MSLGAKPFGEKKFIEIKGRRMAYIDEGTGDPILFQHGNPTSSYLWRNIMPHCAGLGRLIACDLIGMGDSDKLDPSGPERYAYLEHRDYLDALWEALDLGDRVVLVVHDWGSALGFDWARRHRERVQGIAYMEAIAMPIEWADFPEQDRDLFQAFRSQAGEELVLQDNVFVEQVLPGLILRPLSEAEMAAYREPFLAAGEARRPTLSWPRQIPIAGTPADVVAIARDYAGWLSESPIPKLFINAEPGALTTGRMRDFCRTWPNQTEITVAGAHFIQEDSPDEIGAAIAAFVRRLRPA [A83L]	51.5 °C	0.5 °C
MSLGAKPFGEKKFIEIKGRRMAYIDEGTGDPILFQHGNPTSSYLWRNIMPCCAGLGRLIACDLIGMGDSDKLDPSGPERYAYAEHRDYLDALWEALDLGDRVVLVVHDWGSALGFDWARRHRERVQGIAYMEAIAMPIEWADFPEQDRDLFQAFRSQAGEELVLQDNVFVEQVLPGLILRPLSEAEMAAYREPFLAAGEARRPTLSWPRQIPIAGTPADVVAIARDYAGWLSESPIPKLFINAEPGALTTGRMRDFCRTWPNQTEITVAGAHFIQEDSPDEICAAIAAFVRRLRPA [H51C G283C]	48.5 °C and 46 °C	-2.5 °C and -3 °C
